Data reported in patent US20250147051A1, “METHOD FOR DETECTING A TAU PROTEIN IN A SALIVA SAMPLE” (GTINVENT LIMITED, priority 2022, published 2025).

Tests used:
dGA = dGA (Homo sapiens, UniProt P10636); assay: Biacore X100 SPR binding kinetics of anti-tau scAbs (scAb captured via HuCk), analyte dGA; settings: lead scAbs
Experimental: Surface plasmon resonance (SPR) is widely regarded as the gold standard for real time measurement of protein-protein interactions such as antibody binding. All SPR experiments were carried out using a Biacore X100 machine and HBS EP+ running buffer (GE Healthcare). A ‘capture’ method was followed for affinity measurements, where an anti-human constant kappa chain (HuCk) antibody was conjugated to the surface of a CM5 sensor chip using an amine coupling kit and scAb molecules were immobilised via their HuCk domain. Amine coupling is a very common approach for immobilising the ligand to the chip surface. The chip surface has a dextran matrix derivatised with carboxyl groups, which after activation with N-hydroxysuccinimide (NHS) and 1-ethyl-3-(3-dimethylaminopropyl) carbodiimide (EDC), form reactive succinimide esters which allows the covalent capturing of the ligand via any available primary amine groups (e.g. Lysine) on the ligand (in this case anti-HuCk antibody). The capture antibody was diluted 1/100 in 10 mM Sodium acetate buffer pH 5.0 and passed over the activated chip surface for a period of at least 420 s. Final ligand immobilisation levels over 12,000 RU were deemed to be satisfactory.
Following immobilisation, the level of each scAb to be captured was identified using the standard SPR equation with a theoretical RMax of 100 RU. Analyte MW refers to the molecular weight of hT40 or dGA/dGAE molecules, while ligand MW refers to the molecular weight of the scAbs tested. RLis the desired capture level and S refers to the stoichiometric ratio:
The scAb to be tested was added only to flow cell 2 so that flow cell 1 could act as a control to subtract any interaction with the analyte and the chip surface. Both single and multi-cycle runs were utilised using wizards developed in the Biacore X100 control software which are both accepted methods of kinetic analysis (Karlsson, R., et al. Analyzing a kinetic titration series using affinity biosensors (2006) Analytical Biochemistry 349:136-47). The multi-cycle protocol was as follows-Three start-up cycles composed of an initial capture, to the desired level, of the scAb to be tested was performed followed by a 30 s injection of glycine buffer pH 2.0 after each cycle to regenerate the chip surface. The regeneration step removed any captured scAb whilst leaving the capture antibody intact and able to repeat the capture for the next cycle. Following three start-up cycles increasing concentrations (0.15625 nM-100 nM) of the target to be tested were added to the chip surface after the desired scAb capture. The target was added for a 120 s association period and 420 s dissociation period followed by another regeneration, 30 s injection of glycine buffer pH 2.0 in between each cycle.
The single cycle kinetics protocol was similar and utilised the same level of scAb capture. Three start-up cycles were used followed by 5 increasing concentrations of the analyte (6.25 nM-100 nM) for an association period of 120 s followed by a dissociation period of 420 s for each concentration. In single cycle kinetics the regeneration step was performed only after the final analyte concentration was added. Binding responses were analysed in Biacore X100 evaluation software and data fitted to a 1:1 binding model to obtain kinetic and affinity characterisation.

hT40 = assay: Binding ELISA with truncated tau proteins and 13mer peptide libraries for epitope mapping of anti-tau scAbs; design: species or system human; settings: residue numbers of hT40
Experimental: A series of binding ELISA was performed using various truncated versions of the tau protein and 13mer peptide libraries spanning the entire hT40 molecule for mapping the epitopes of anti-tau scAbs (Full list of protein antigens used is given in Table 14). In general, ELISA plates were coated with 1 μg/ml hT40 or dGA or dGAE or other truncated versions of the protein and in the case of biotinylated peptides, plates were coated with 5 μg/ml Streptavidin followed by 1 μg/ml biotinylated peptide. The plates were blocked with 2% MPBS and scAb samples added at desired starting concentrations and double diluted across the plate. Binding was detected using anti-Human C Kappa HRP conjugated secondary antibody and the resulting immunoreaction was developed and absorbance values measured as described above.
Selected E specific scAbs and their specific binding to dGAE is shown below (FIG. 8A-E).
Similarly, dGA binding ‘NS’, ‘S’ and ‘M’ group scAbs were subjected to further antigen binding ELISA using shorter tau proteins and biotinylated 13mer peptides as shown below (FIG. 10A-F) and (FIG. 11A-R).

tau protein = assay: Capture ELISA of transgenic mouse brain lysates; settings: S1D12 mAb capture, label = detection scAb, WT, L1, L66+/- and L66+/+
Experimental: Mouse brain lysates were prepared from wildtype, Line 1, Line 66+/+ and Line 66+/− (Melis et al., 2015, all surplus from Charles River, part of study R0144). All animals were female, 7-8 months old except Line 66+/+ which were 5 months old. […] The L1 cDNA construct (FIG. 23) contains human tau cDNA coding for amino acid residues 296-390 with a signal sequence and related sequences in a murine Thy-1 expression cassette. For brain lysate preparation, half brains were sectioned into four and the individual sections were homogenised in 400 μl of ice cold RIPA buffer (Cell signalling Technology) containing protease and phosphatase inhibitors. Total protein concentrations for individual samples were established by BCA-assay and each sample was subsequently diluted to 1 mg/ml for future experiments.
For capture ELISA, 100 μL S1D12 capture mAb was used to coat a nunc 96 well Maxisorp plate at 1 μg/ml and incubated for 1 hour at 37° C. Plate was washed as previously and then blocked for 1 hour at 37° C. in 2% MPBS. Brain homogenate samples (50 ng total protein) from each mouse type were added to the first wells and double diluted across the plate in PBS. These samples were left to incubate at RT for 1 hour. Various detection scAbs encompassing epitopes of interest were then added to the plate at 1 μg/ml and incubated for 1 h at RT. Secondary antibody used was anti-HuCk HRP and the assays were developed as described previously. Using S1D12 mAb capture and two separate scAb detectors, S-1G2 (FIG. 24A) and C-B7 (FIG. 24B), it was possible to differentiate between L1 and L66 samples and the wild type.

tau [1] = assay: Capture ELISA of transgenic mouse plasma; settings: Line66 transgenic model; detection scAb with S1D12 mAb capture
Experimental: Plasma samples from WT, L1, L66+/− and L66+/+ of various ages (1.5-9 months) were taken as described. Mice were terminally anaesthetized using an overdose of sodium pentobarbital and blood was collected through cardiac puncture through a Plastipak syringe pre-rinsed with heparinised saline heparin (10 U/ml) (Heparin sodium salt; Sigma-Aldrich) and transferred into a plastic vial containing lithium heparin anticoagulant (Sarstedt Ltd.) Blood samples, kept on ice for no more than 30 minutes, were centrifuged to obtain plasma at 2000×g for 5 minutes at 6° C. Plasma samples were stored at −20° C.
For mouse plasma capture ELISA, 100 μL capture mAb was coated to the bottom of a black nunc 96 well ‘maxisorp’ plate at 2.5 μg/ml and incubated for 1 hour at 37° C. After washing and blocking as normal, several known standard solutions were set up in triplicate starting at 20 ng/ml of the desired protein before double diluted in the remaining wells. Mouse samples were added to wells in duplicate with a blank in between each sample group. Line1 plasma was diluted 1:10 before addition to plate to account for its high concentration while other samples were diluted 1:2 to account for potential matrix effects. […] The ELISA was developed using SuperSignal ELISA Femto Substrate (Thermo Scientific) and total luminescence was read on Clariostar Plus plate reader (BMG Labtech). […]

tau [2] = assay: Western blot of mouse brain homogenates (WT, L66+/+, L1+/+); settings: 20 μg brain homogenate protein, 5-month-old WT, L1+/+ mice
Experimental: Protein equivalent to 20 μg from each brain extract was separated using 4-20% bis-tris gels and run in 1×MES buffer. […] A clear band is visible in the lanes containing L66^+/+ samples, but no other bands are detectable (WT or L1^+/+). […] Once again, a band having relative mobility of 65 kDa is visible in the L66 sample with no other reactive bands present.
This band most likely corresponds to endogenous mouse tau which is of a similar size. In the L66^+/+ samples, a second band running at approximately 68 kDa is also detected. The presence of numerous other bands indicates proteolytic truncation of tau within brain homogenates.

plasma tau = assay: 3-step Simoa assays of human plasma (AD/MCI vs healthy control / CU); settings: label = capture antibody; CA4 with BT2 detector; BT2 or HT7 with S1D12 or S1G2 detectors
Experimental: Human plasma samples were sourced from the commercial supplier Logical Biological Ltd. Healthy control (HC, n=12) and samples from individuals with a diagnosis of AD or mild cognitive impairment (AD/MCI, n=42) were aliquoted into low bind microfuge tubes and stored at −80° C.
The Simoa® experiments used for plasma screening utilised a 3-step protocol optimised for use with plasma samples. A standard curve (540 pg/ml−0.7 pg/ml) was created by spiking recombinant hTau40 into Tau 2.0 diluent and triple diluting. Plasma samples were diluted 1:100 and added in duplicate to the Simoa® plate followed by the addition of respective capture beads. Different antibody pairings used for plasma screening is explained in Table 28. In general, the capture antibody coated beads are mixed with diluted plasma samples, added to the plates and incubated for 30 min at 30° C. with shaking. Following the incubation, the plates were washed using the Simoa® plate washer before the addition of 0.2 μg/ml biotinylated detector antibody which was left to incubate as before for 10 min. The plates were then washed again before the addition of SBG and a final 10 min incubation. After the final incubation and wash steps the plates were transferred to the Simoa® reader and plasma tau concentrations generated against a 4-parameter fit curve. […]

Sequence of dGA (P10636 614-707): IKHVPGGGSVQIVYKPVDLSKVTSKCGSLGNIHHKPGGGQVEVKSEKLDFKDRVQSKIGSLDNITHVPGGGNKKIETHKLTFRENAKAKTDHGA

B1: CE2: anti-tau clone referred to as CE2 or E1B8, SEQ ID NO: 366 (protein)
scFv: QVQLQESGPSLVKPSQTLSLTCTVSGFSLTNYPVGWVRQAPGKALEWIGNIENDGSANYASALKSRLSITRDTSKNQVSLSLSSATTEDTAVYYCGREFGGSDGYTYFVDIDYWGPGLLVTVSSEGKSSGASGESKVDDQAVLTQPSSVSKSLGQSVSITCSGSSSNVGYGNYVSWFQQVPGSAPKILIYGATSRASGVPDRFSGSRSGNTATLTITSLQAEDEADYYCASYDGSSSGVFGSGTRLTVLG
modifications: CE2/E1B8 amino acid sequence
In the case of B1, the ka (dGA; Table 24) is reported as 137000 M⁻¹ s⁻¹, the “dissociation rate constant (kd)” value (dGA; Table 24, dissociation rate) is reported as 0.00242 s⁻¹ and the “Tau proteins/fragments with positive scAb reactivity” value (hT40) is reported as 297-390 (dGA), 297-391 and (dGAE), 313-336.

B2: CB7: anti-tau clone, SEQ ID NO: 364 (protein)
scFv: QVQLQESGPSLVKPSQTLSLTCTVSGFSLTNYRVGWVRQAPGKALEWVSNIRSGGTTWYNPALKSRLSITADTSKSQVSLSLSSVTTEDTAVYYCARDSSGDLYAYDYWGPGLLVTVSSEGKSSGASGESKVDDQAVLTQPSSVSRSLGQSVSMTCSGSSSNVGYGNYMAWFQQVPGSAPKLLIYGATSRASGVPDRFSGSRSGNTATLTISSLQAEDEADYYCASYDSTSGGVFGSGTRLTVLG
modifications: CB7 amino acid sequence
For B2, the “detection of tau in mouse brain homogenate” value (tau protein; listed as C-B7 scAb) was “hT40 tau was specifically detected in L66 samples”, the “detection of tau in mouse brain homogenate” value (tau protein; listed as CB7 scAb) was “can specifically detect human tau in Line66 homozygous and heterozygous samples” and the “cross-reaction with endogenous mouse tau protein” value (tau [1]) was “does not cross react with endogenous mouse tau protein”. The Western blot reactivity (tau [2]) was “specificity for human tau”.

B3: CA4: anti-tau clone, SEQ ID NO: 368 (protein)
chain: QVQLQESGPSLVKPSQTLSLTCTVSGFSLTSYSVYWVRQAPGQALEWISIMYASGRVDYNPALKSRLSITRDTSKSQFSLSLSSVTTEDTAVYYCTRGIENWGPGLLVTVSSEGKSSGASGESKVDDDIQVTQSPSSLSASLTERVSITCRTSQSVNNYLSWYQQKPGQAPKLLIYYATRLYTDVPSRFSGSGSGTDYTLTITSLEADDTATYYCLQYDSTPLAFGGGTNVEIK
modifications: CA4 amino acid sequence
B3 was tested, and the “detection of tau in human plasma” value (plasma tau) was “high levels of Core/Proline tau is detected in cognitively unimpaired (CU) samples only”.
